Data published in patent US20230038638A1, “COMPLEMENT FACTOR I-RELATED COMPOSITIONS AND METHODS” (published 2023).

Key:
[1] = molecular target: T1, human C4b (human) (UniProt P0C0L5)
T1 sequence: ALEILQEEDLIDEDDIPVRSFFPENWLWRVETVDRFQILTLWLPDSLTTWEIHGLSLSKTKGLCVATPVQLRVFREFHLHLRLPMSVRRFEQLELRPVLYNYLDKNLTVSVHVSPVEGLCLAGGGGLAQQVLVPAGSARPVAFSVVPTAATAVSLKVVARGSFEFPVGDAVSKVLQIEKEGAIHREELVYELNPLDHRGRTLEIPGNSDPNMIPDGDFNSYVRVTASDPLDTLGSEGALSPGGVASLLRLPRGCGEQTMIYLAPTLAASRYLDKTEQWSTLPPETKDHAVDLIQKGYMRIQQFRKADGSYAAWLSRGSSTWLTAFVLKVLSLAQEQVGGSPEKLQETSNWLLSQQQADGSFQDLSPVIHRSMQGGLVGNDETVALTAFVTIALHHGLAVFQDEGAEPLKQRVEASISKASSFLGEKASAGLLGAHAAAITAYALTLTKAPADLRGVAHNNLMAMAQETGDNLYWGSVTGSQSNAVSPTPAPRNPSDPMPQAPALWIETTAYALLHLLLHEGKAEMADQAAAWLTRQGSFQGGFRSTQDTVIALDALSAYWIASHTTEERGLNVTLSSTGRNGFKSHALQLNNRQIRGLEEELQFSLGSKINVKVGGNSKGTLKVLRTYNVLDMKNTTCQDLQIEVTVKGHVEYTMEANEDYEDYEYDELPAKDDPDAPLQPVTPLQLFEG

[2] = molecular target: soluble human C3b (human) (UniProt P01024)

“CFI-HSA variant S552G; F559L; P558S (enzyme)” showed a C4b Screen Ref Fold (fold of CFI-HSA wild type) [1] of 0.93 and an iC3b Screen Ref Fold (fold of CFI-HSA wild type) [2] of 0.44.

For “CFI-HSA variant S552G; F559L; V565I (enzyme)”, the C4b Screen Ref Fold (fold of CFI-HSA wild type) [1] was 0.73 and the iC3b Screen Ref Fold (fold of CFI-HSA wild type) [2] was 0.42.

Substance “CFI-HSA variant S552G; F559L; V565I; P558S (enzyme)” has a C4b Screen Ref Fold (fold of CFI-HSA wild type) [1] of 1.8 and an iC3b Screen Ref Fold (fold of CFI-HSA wild type) [2] of 0.49.

With CFI-HSA variant S552G; V565I (enzyme) the C4b Screen Ref Fold (fold of CFI-HSA wild type) [1] was 1.23 and the iC3b Screen Ref Fold (fold of CFI-HSA wild type) [2] was 1.58.

For “CFI-HSA variant S552G; V565I; P558S (enzyme)”, the C4b Screen Ref Fold (fold of CFI-HSA wild type) [1] was 0.89 and the iC3b Screen Ref Fold (fold of CFI-HSA wild type) [2] was 1.32.

Substance “CFI-HSA variant S552G; Y553H; F559L; P558S (enzyme)” has a C4b Screen Ref Fold (fold of CFI-HSA wild type) [1] of 2.33 and an iC3b Screen Ref Fold (fold of CFI-HSA wild type) [2] of 0.18.

“CFI-HSA variant S552G; Y553H; F559L; V565I; P558S (enzyme)” gave a C4b Screen Ref Fold (fold of CFI-HSA wild type) [1] of 2.44 and an iC3b Screen Ref Fold (fold of CFI-HSA wild type) [2] of 0.62.

With “CFI-HSA variant T495F; Y496L; D497E; S499G; I500K (enzyme)” the C4b Screen Ref Fold (fold vs CFI-HSA wild type) [1] was -0.04 and the iC3b Screen Ref Fold (fold vs CFI-HSA wild type) [2] was 0.

Work on “CFI-HSA variant T495F; Y496L; D497E; S499G; I500K; G533A; K534Q; P535K; E536N; F537K (enzyme)” yielded a C4b Screen Ref Fold (fold vs CFI-HSA wild type) [1] of -0.02 and an iC3b Screen Ref Fold (fold vs CFI-HSA wild type) [2] of 0.02.

In the case of CFI-HSA variant V323A (enzyme), the C4b Screen Ref Fold (fold vs CFI-HSA wild type) [1] is reported as 0.01 and the iC3b Screen Ref Fold (fold vs CFI-HSA wild type) [2] is reported as 0.05.

Substance CFI-HSA variant V565I (enzyme) has a C4b Screen Ref Fold (fold of CFI-HSA wild type) [1] of 1.11 and an iC3b Screen Ref Fold (fold of CFI-HSA wild type) [2] of 1.25.

Work on CFI-HSA variant V565I; P558S (enzyme) yielded a C4b Screen Ref Fold (fold of CFI-HSA wild type) [1] of 1.41 and an iC3b Screen Ref Fold (fold of CFI-HSA wild type) [2] of 0.85.

CFI-HSA variant W381K (enzyme) was tested, and the C4b Screen Ref Fold (fold vs CFI-HSA wild type) [1] was 0 and the iC3b Screen Ref Fold (fold vs CFI-HSA wild type) [2] was 0.02.

With CFI-HSA variant Y20F; D425R (enzyme) the C4b Screen Ref Fold (fold vs CFI-HSA wild type) [1] was 0.42 and the iC3b Screen Ref Fold (fold vs CFI-HSA wild type) [2] was 1.01.

“CFI-HSA variant Y20F; E38A; S250A; D425A (enzyme)” gave a C4b Screen Ref Fold (fold vs CFI-HSA wild type) [1] of 0.21 and an iC3b Screen Ref Fold (fold vs CFI-HSA wild type) [2] of 0.67.

“CFI-HSA variant Y403F; D425K; E457G; E461Q; K504Y; N531G (enzyme)” showed a C4b Screen Ref Fold (fold relative to CFI-HSA wild type) [1] of 3.11 and an iC3b Screen Ref Fold (fold relative to CFI-HSA wild type) [2] of 0.03.

“CFI-HSA variant Y403F; G406A; D425K; E457G; E461Q; K504Y; N531G (enzyme)” was tested, and the C4b Screen Ref Fold (fold relative to CFI-HSA wild type) [1] was 3.16 and the iC3b Screen Ref Fold (fold relative to CFI-HSA wild type) [2] was 0.02.

In the case of “CFI-HSA variant Y403F; G406A; D425K; E457G; E461Q; N531G (enzyme)”, the C4b Screen Ref Fold (fold relative to CFI-HSA wild type) [1] is reported as 4.12 and the iC3b Screen Ref Fold (fold relative to CFI-HSA wild type) [2] is reported as 0.14.

CFI-HSA variant Y408A (enzyme) showed a C4b Screen Ref Fold (fold vs CFI-HSA wild type) [1] of 0.09 and an iC3b Screen Ref Fold (fold vs CFI-HSA wild type) [2] of 0.71.

In the case of CFI-HSA variant Y408G (enzyme), the C4b Screen Ref Fold (fold vs CFI-HSA wild type) [1] is reported as 0.05 and the iC3b Screen Ref Fold (fold vs CFI-HSA wild type) [2] is reported as 0.27.

Substance CFI-HSA variant Y408L; D425K (enzyme) has a C4b Screen Ref Fold (fold of CFI-HSA wild type) [1] of 1.29 and an iC3b Screen Ref Fold (fold of CFI-HSA wild type) [2] of 1.14.

With “CFI-HSA variant Y408L; E457G; N531G; P535G; WT; GGSSGG (SEQ ID NO: 6); CR1(ccp15-17) (from UniProt P17927) (enzyme)” the C4b Screen Ref Fold (fold of CFI-HSA wild type) [1] was 3.14 and the iC3b Screen Ref Fold (fold of CFI-HSA wild type) [2] was 0.05.

“CFI-HSA variant Y408L; E457G; N531G; WT; GGSSGG (SEQ ID NO: 6); CR1(ccp15-17) (from UniProt P17927) (enzyme)” showed a C4b Screen Ref Fold (fold of CFI-HSA wild type) [1] of 3.65 and an iC3b Screen Ref Fold (fold of CFI-HSA wild type) [2] of 0.1.

“CFI-HSA variant Y408L; E457G; P535G; K534Q (enzyme)” gave a C4b Screen Ref Fold (fold of CFI-HSA wild type) [1] of 1.43 and an iC3b Screen Ref Fold (fold of CFI-HSA wild type) [2] of 0.53.

For “CFI-HSA variant Y408L; E457G; P535G; N422K (enzyme)”, the C4b Screen Ref Fold (fold of CFI-HSA wild type) [1] was 1.07 and the iC3b Screen Ref Fold (fold of CFI-HSA wild type) [2] was 1.39.

With “CFI-HSA variant Y408L; E457G; P535G; P558S (enzyme)” the C4b Screen Ref Fold (fold of CFI-HSA wild type) [1] was 1.08 and the iC3b Screen Ref Fold (fold of CFI-HSA wild type) [2] was 0.7.

Substance “CFI-HSA variant Y408L; E457G; P535G; WT; GGSSGG (SEQ ID NO: 6); CR1(ccp15-17) (from UniProt P17927) (enzyme)” has a C4b Screen Ref Fold (fold of CFI-HSA wild type) [1] of 1.99 and an iC3b Screen Ref Fold (fold of CFI-HSA wild type) [2] of 0.23.

“CFI-HSA variant Y408L; E457G; WT; GGSSGG (SEQ ID NO: 6); CR1(ccp15-17) (from UniProt P17927) (enzyme)” gave a C4b Screen Ref Fold (fold of CFI-HSA wild type) [1] of 3.18 and an iC3b Screen Ref Fold (fold of CFI-HSA wild type) [2] of 0.12.

In the case of CFI-HSA variant Y408L; K534Q (enzyme), the C4b Screen Ref Fold (fold of CFI-HSA wild type) [1] is reported as 1.26 and the iC3b Screen Ref Fold (fold of CFI-HSA wild type) [2] is reported as 0.97.
